Data reported in US20240026031A1 (University of California, published 2024).
Values belong to the binder of their own block, whether it stands above or below them.

Legend:
[1] = target: T1, RNF43 (UniProt Q68DV7 24-197, limits assumed); experiment: affinity for RNF43; method and format not stated; WT anti-RNF43 A5
T1 sequence (looked up): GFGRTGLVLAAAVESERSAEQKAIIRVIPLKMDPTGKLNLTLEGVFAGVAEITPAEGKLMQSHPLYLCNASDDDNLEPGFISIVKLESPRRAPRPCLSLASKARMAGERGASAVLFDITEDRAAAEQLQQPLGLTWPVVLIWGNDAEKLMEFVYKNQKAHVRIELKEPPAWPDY

[2] = target: T1, RNF43; experiment: affinity for RNF43; method and format not stated; S113A mutant of CDR H3
[3] = target: T1, RNF43; experiment: affinity for RNF43; method and format not stated; F115A mutant of CDR H3

- Kd [1]: 0.0125 µM
B1: anti-RNF43 A5 (WT RNF43 binder) (Fab, V domains shown)
VH: EVQLVESGGGLVQPGGSLRLSCAASGFNIYYYSMHWVRQAPGKGLEWVASISPYYSYTSYADSVKGRFTISADTSKNTAYLQMNSLRAEDTAVYYCARYGYYGWDYHRYSAFDYWGQGTLVTVSS
VL: DIQMTQSPSSLSASVGDRVTITCRASQSVGSALAWYQQKPGKAPKLLIYSASSLYSGVPSRFSGSRSGTDFTLTISSLQPEDFATYYCQQAYPITFGQGTKVEIKR
notes: also called WT RNF43 A5; clone anti-RNF43 A5

- Kd [2]: 0.04 µM
B2: anti-RNF43 A5 alanine mutant S113A (CDR H3) (Fab, V domains shown)
VH: EVQLVESGGGLVQPGGSLRLSCAASGFNIYYYSMHWVRQAPGKGLEWVASISPYYSYTSYADSVKGRFTISADTSKNTAYLQMNSLRAEDTAVYYCARYGYYGWDYHRYAAFDYWGQGTLVTVSS
VL: DIQMTQSPSSLSASVGDRVTITCRASQSVGSALAWYQQKPGKAPKLLIYSASSLYSGVPSRFSGSRSGTDFTLTISSLQPEDFATYYCQQAYPITFGQGTKVEIKR
notes: also called 40 nM

- Kd [3]: 0.125 µM
B3: anti-RNF43 A5 alanine mutant F115A (CDR H3) (Fab, V domains shown)
VH: EVQLVESGGGLVQPGGSLRLSCAASGFNIYYYSMHWVRQAPGKGLEWVASISPYYSYTSYADSVKGRFTISADTSKNTAYLQMNSLRAEDTAVYYCARYGYYGWDYHRYSAADYWGQGTLVTVSS
VL: DIQMTQSPSSLSASVGDRVTITCRASQSVGSALAWYQQKPGKAPKLLIYSASSLYSGVPSRFSGSRSGTDFTLTISSLQPEDFATYYCQQAYPITFGQGTKVEIKR
